± gives the uncertainty stated by the source.
Assay: self-splicing fitness, log relative to wild type (ln ratio); higher = more splicing; Tetrahymena group I intron in knt gene, E. coli kanamycin selection, DiMSum; sequences stand for … in CUCUCU…GGAGGGAAAAGUUAUCAGGCAUGCACCUGGUAGCUAGUCUUUAAACCAAUAGAUUGCAUCGGUUUAAAAGGCAAGACCGUCAAAUUGCGGGAAAGGGGUCAACAGCCGUUCAGUACCAAGUCUCAGGGGAAACUUUGAGAUGGCCUUGCAAAGGGUAUGGUAAUAAGCUGACGGACAUGGUCCUAACCACGCAGCCAAGUCCUAAGUCAACAGAUCUUCUGUUGAUAUGGAUGCAGUUCACAGACUAAAUGUCGGUCGGGGAAGAUGUAUUCUUCUCAUAAGAUAUAGUCGGACCUCUCCUUAAUGGGAGCUAGCGGAUGAAGUGAUGCAACACUGGAGCCGCUGGGAACUAAUUUGUAUGCGAAAGUAUAUUGAUUAGUUUUGGAGUACUCGUGGUCG
Summary of the method: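 The eight P1ex-region nucleotides of an intron in the knt kanamycin-resistance gene on pET-22b(+) were all randomised and the library put into E. coli BL21(DE3). Six replicate transformations were grown overnight at 37°C or 30°C on LB agar with or without 25 μg/mL kanamycin, together with 100 μg/mL carbenicillin, 50 μM IPTG and 0.2% rhamnose. Colonies were pooled and amplicon-sequenced on an Illumina HiSeq 2500. Fitness from DiMSum is the error-weighted combination of wild-type-normalised replicate fold changes, kanamycin over none.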

Row | Sequence | self-splicing fitness (ln) (30 °C) | self-splicing fitness (ln) (37 °C)
1 | UACAAGCAAUAUUACGCAGU | -3.96 ± 0.27 | -3.27 ± 0.21
2 | CGUUAGCAAUAUUACGGGGG | -4.81 ± 0.45 | -3.46 ± 0.29
3 | UAGCAGCAAUAUUACGCUCU | -1.27 ± 0.087 | -1.04 ± 0.088
4 | GUCGAGCAAUAUUACGGCGC | -0.811 ± 0.25 | -0.631 ± 0.44
5 | AAAUAGCAAUAUUACGAUCC | -0.358 ± 0.14 | -0.695 ± 0.17
6 | GGAUAGCAAUAUUACGGACA | -1.68 ± 0.16 | -0.273 ± 0.16
7 | GUCUAGCAAUAUUACGGCGA | -0.49 ± 0.22 | -0.132 ± 0.21
8 | GUGUAGCAAUAUUACGGUGA | -1.45 ± 0.11 | -0.916 ± 0.14
9 | CGCCAGCAAUAUUACGGUGA | -1.98 ± 0.11 | -1.84 ± 0.11
10 | UCGCAGCAAUAUUACGGUCG | -0.126 ± 0.094 | 0.0192 ± 0.14
11 | CUUGAGCAAUAUUACGUGAA | -3.07 ± 0.2 | -2.36 ± 0.3
12 | GAUAAGCAAUAUUACGAAUA | -2.53 ± 0.22 | -1.58 ± 0.3
13 | GCUUAGCAAUAUUACGCUAU | -2.31 ± 0.16 | -1.38 ± 0.16
14 | CAUAAGCAAUAUUACGCCGA | – | -1.71 ± 0.48
15 | GUGAAGCAAUAUUACGGAGU | -1.3 ± 0.072 | -0.63 ± 0.091
16 | UUUGAGCAAUAUUACGUAUA | -2.78 ± 0.3 | -2.67 ± 0.36
17 | GGCUAGCAAUAUUACGUUAU | -0.733 ± 0.072 | -0.394 ± 0.091
18 | CUGAAGCAAUAUUACGGAUG | -2.18 ± 0.1 | -1.14 ± 0.1
19 | CACGAGCAAUAUUACGCUAA | -2.95 ± 0.34 | -2.75 ± 0.22
20 | CCUAAGCAAUAUUACGGCAC | -3.72 ± 0.25 | -2.62 ± 0.28
21 | UUAGAGCAAUAUUACGGCGC | -2.79 ± 0.24 | -0.914 ± 0.25
22 | CUCUAGCAAUAUUACGGAAG | -2.95 ± 0.13 | -1.34 ± 0.12
23 | CCUUAGCAAUAUUACGCUUU | -3.64 ± 0.31 | -2.46 ± 0.22
24 | CGUCAGCAAUAUUACGCGCA | -1.1 ± 0.14 | -0.181 ± 0.13
25 | AACAAGCAAUAUUACGUCGU | -2.18 ± 0.068 | -0.677 ± 0.067

Row | Sequence | self-splicing fitness (ln) (30 °C) | self-splicing fitness (ln) (37 °C)
26 | GAGAAGCAAUAUUACGAGUG | -2.91 ± 0.14 | -1.01 ± 0.11
27 | CUCUAGCAAUAUUACGCACA | -3.24 ± 0.4 | -3.82 ± 0.46
28 | CUUAAGCAAUAUUACGUAAG | -2.83 ± 0.1 | -1.27 ± 0.098
29 | AUACAGCAAUAUUACGCCCC | -1.47 ± 0.25 | 0.0702 ± 0.23
30 | GAAAAGCAAUAUUACGAAAC | -2.88 ± 0.14 | -0.0376 ± 0.11
31 | CAAAAGCAAUAUUACGGUAG | -0.372 ± 0.058 | -0.148 ± 0.074
32 | CGUGAGCAAUAUUACGUCGA | -1.75 ± 0.29 | -3.3 ± 0.3
33 | CACUAGCAAUAUUACGCCAA | -2.23 ± 0.16 | -2.89 ± 0.24
34 | GGCCAGCAAUAUUACGUCAC | -2.59 ± 0.34 | –
35 | UAAGAGCAAUAUUACGUGGA | -2.84 ± 0.28 | -2.14 ± 0.3
36 | UAUUAGCAAUAUUACGCUAC | -2.5 ± 0.41 | -1.15 ± 0.47
37 | AUUAAGCAAUAUUACGACUU | 0.276 ± 0.082 | -0.0124 ± 0.11
38 | GCAAAGCAAUAUUACGAUCG | -1.52 ± 0.067 | -0.0765 ± 0.091
39 | CACAAGCAAUAUUACGUCAA | -3.14 ± 0.17 | -2.6 ± 0.2
40 | CCGAAGCAAUAUUACGCUAG | -2.1 ± 0.18 | -1.87 ± 0.22
41 | UCGGAGCAAUAUUACGAAUG | -4.16 ± 0.36 | -2.15 ± 0.27
42 | ACUUAGCAAUAUUACGCAGA | -2.32 ± 0.26 | -0.913 ± 0.15
43 | AACAAGCAAUAUUACGACCA | -0.617 ± 0.086 | -0.382 ± 0.12
44 | ACAGAGCAAUAUUACGUGGU | -3.82 ± 0.2 | -2.37 ± 0.21
45 | CGAUAGCAAUAUUACGCGCA | -0.97 ± 0.12 | -0.529 ± 0.12
46 | AGCAAGCAAUAUUACGCUGC | -1.58 ± 0.2 | -3.1 ± 0.31
47 | CAUGAGCAAUAUUACGAUGC | -3.19 ± 0.17 | -1.89 ± 0.2
48 | CCUCAGCAAUAUUACGACAC | -4.04 ± 0.28 | -2.5 ± 0.29
49 | CCCGAGCAAUAUUACGGUGU | -3.28 ± 0.1 | -1.67 ± 0.094
50 | UCUUAGCAAUAUUACGGAUG | -3.74 ± 0.28 | -1.76 ± 0.17

Row | Sequence | self-splicing fitness (ln) (30 °C) | self-splicing fitness (ln) (37 °C)
51 | GUGGAGCAAUAUUACGAGAG | -3.58 ± 0.22 | -2.7 ± 0.38
52 | GCGUAGCAAUAUUACGUCAG | -1.8 ± 0.4 | -1.23 ± 0.4
53 | GGGCAGCAAUAUUACGGCCG | -1.5 ± 0.16 | -1.59 ± 0.26
54 | AGAAAGCAAUAUUACGUCCU | -0.0571 ± 0.065 | 0.432 ± 0.089
55 | ACACAGCAAUAUUACGUCCG | -1.3 ± 0.079 | 0.213 ± 0.11
56 | AGAAAGCAAUAUUACGGUGC | -2.39 ± 0.15 | -2.6 ± 0.31
57 | UUCGAGCAAUAUUACGUAUU | – | -2.79 ± 0.43
58 | CGCGAGCAAUAUUACGAGAG | -2.69 ± 0.18 | -2.92 ± 0.31
59 | UCGCAGCAAUAUUACGUCGA | -1.81 ± 0.13 | -2.03 ± 0.18
60 | UCAAAGCAAUAUUACGGACA | -0.451 ± 0.13 | 0.0835 ± 0.14
61 | CUCUAGCAAUAUUACGGUUU | -3.04 ± 0.41 | -1.82 ± 0.29
62 | ACGGAGCAAUAUUACGGGAU | -1.84 ± 0.14 | -1.83 ± 0.2
63 | AUCGAGCAAUAUUACGGUGU | -2.74 ± 0.1 | -1.71 ± 0.14
64 | CCAGAGCAAUAUUACGUGGA | -4.15 ± 0.23 | -2.03 ± 0.16
65 | CACGAGCAAUAUUACGGUAG | -2.41 ± 0.12 | -2.18 ± 0.14
66 | CCUGAGCAAUAUUACGCGGG | -3.41 ± 0.26 | -2.22 ± 0.34
67 | GGUGAGCAAUAUUACGGUUC | -1.21 ± 0.23 | -0.574 ± 0.4
68 | CCCGAGCAAUAUUACGUUUC | -3.44 ± 0.2 | -3.54 ± 0.24
69 | UAUUAGCAAUAUUACGCUUA | -1.05 ± 0.2 | -0.89 ± 0.25
70 | UUAAAGCAAUAUUACGCAGC | – | -2.68 ± 0.47
71 | GCCCAGCAAUAUUACGCAUA | -1.61 ± 0.093 | -0.164 ± 0.088
72 | CAGUAGCAAUAUUACGACGA | -1.39 ± 0.13 | -0.446 ± 0.13
73 | UCCUAGCAAUAUUACGAGCG | -1.5 ± 0.099 | -1.15 ± 0.14
74 | CACCAGCAAUAUUACGCCGU | -2.65 ± 0.13 | -2.55 ± 0.18
75 | GUACAGCAAUAUUACGGAAG | -1.45 ± 0.11 | -3.01 ± 0.25

Row | Sequence | self-splicing fitness (ln) (30 °C) | self-splicing fitness (ln) (37 °C)
76 | AUAAAGCAAUAUUACGUUUG | -2.84 ± 0.11 | -1.79 ± 0.12
77 | GCUUAGCAAUAUUACGUCGC | -1.72 ± 0.19 | -0.764 ± 0.28
78 | GAGAAGCAAUAUUACGUAUA | -2.51 ± 0.14 | -1.71 ± 0.14
79 | UAUGAGCAAUAUUACGCUUG | -3.32 ± 0.4 | 0.0607 ± 0.25
80 | AGCCAGCAAUAUUACGAAAC | -3.51 ± 0.48 | -1.38 ± 0.26
81 | GCAAAGCAAUAUUACGUGGG | -3.38 ± 0.15 | -3.07 ± 0.16
82 | AUAAAGCAAUAUUACGACCA | -0.122 ± 0.09 | 0.00323 ± 0.12
83 | ACUUAGCAAUAUUACGACCA | -0.584 ± 0.12 | -1.01 ± 0.12
84 | GCCUAGCAAUAUUACGUGUA | -1.55 ± 0.086 | -0.545 ± 0.088
85 | AUGGAGCAAUAUUACGGCUU | -2.98 ± 0.29 | -1.83 ± 0.38
86 | CUCAAGCAAUAUUACGUAAG | -0.417 ± 0.054 | -0.102 ± 0.086
87 | GAAAAGCAAUAUUACGUCUC | -1.3 ± 0.073 | -0.38 ± 0.092
88 | CCUGAGCAAUAUUACGGCAG | -2.92 ± 0.34 | -0.802 ± 0.17
89 | GACCAGCAAUAUUACGGGAG | -0.677 ± 0.053 | -0.0889 ± 0.065
90 | UAGCAGCAAUAUUACGUAUA | -1.89 ± 0.096 | -0.924 ± 0.12
91 | CAUGAGCAAUAUUACGCACA | -2.8 ± 0.2 | -2.44 ± 0.23
92 | CUAAAGCAAUAUUACGCUCA | -3.67 ± 0.25 | -2.39 ± 0.19
93 | UGGAAGCAAUAUUACGGGUC | – | -3.04 ± 0.38
94 | UUUAAGCAAUAUUACGUCCU | -1.82 ± 0.2 | -1.09 ± 0.15
95 | GAUGAGCAAUAUUACGCAAU | -4.35 ± 0.34 | -2.46 ± 0.19
96 | GAAGAGCAAUAUUACGAUCC | -1.84 ± 0.39 | –
97 | UGAUAGCAAUAUUACGCCUG | 0.213 ± 0.14 | 0.502 ± 0.2

Source: the supplement of paper PMC7877785
